From paper PMC5286394, “Architecture of the yeast Elongator complex” (EMBO Reports, 2016)

T1: endogenously TAP-tagged Elp1 (S. cerevisiae (endogenous in strain …, UniProt Q06706 1-1349))
T1 construct: Elp1, S. cerevisiae, endogenous protein with TAP tag (Elp1-TAP::TRP1); also called Elp1-TAP
T1 sequence (looked up): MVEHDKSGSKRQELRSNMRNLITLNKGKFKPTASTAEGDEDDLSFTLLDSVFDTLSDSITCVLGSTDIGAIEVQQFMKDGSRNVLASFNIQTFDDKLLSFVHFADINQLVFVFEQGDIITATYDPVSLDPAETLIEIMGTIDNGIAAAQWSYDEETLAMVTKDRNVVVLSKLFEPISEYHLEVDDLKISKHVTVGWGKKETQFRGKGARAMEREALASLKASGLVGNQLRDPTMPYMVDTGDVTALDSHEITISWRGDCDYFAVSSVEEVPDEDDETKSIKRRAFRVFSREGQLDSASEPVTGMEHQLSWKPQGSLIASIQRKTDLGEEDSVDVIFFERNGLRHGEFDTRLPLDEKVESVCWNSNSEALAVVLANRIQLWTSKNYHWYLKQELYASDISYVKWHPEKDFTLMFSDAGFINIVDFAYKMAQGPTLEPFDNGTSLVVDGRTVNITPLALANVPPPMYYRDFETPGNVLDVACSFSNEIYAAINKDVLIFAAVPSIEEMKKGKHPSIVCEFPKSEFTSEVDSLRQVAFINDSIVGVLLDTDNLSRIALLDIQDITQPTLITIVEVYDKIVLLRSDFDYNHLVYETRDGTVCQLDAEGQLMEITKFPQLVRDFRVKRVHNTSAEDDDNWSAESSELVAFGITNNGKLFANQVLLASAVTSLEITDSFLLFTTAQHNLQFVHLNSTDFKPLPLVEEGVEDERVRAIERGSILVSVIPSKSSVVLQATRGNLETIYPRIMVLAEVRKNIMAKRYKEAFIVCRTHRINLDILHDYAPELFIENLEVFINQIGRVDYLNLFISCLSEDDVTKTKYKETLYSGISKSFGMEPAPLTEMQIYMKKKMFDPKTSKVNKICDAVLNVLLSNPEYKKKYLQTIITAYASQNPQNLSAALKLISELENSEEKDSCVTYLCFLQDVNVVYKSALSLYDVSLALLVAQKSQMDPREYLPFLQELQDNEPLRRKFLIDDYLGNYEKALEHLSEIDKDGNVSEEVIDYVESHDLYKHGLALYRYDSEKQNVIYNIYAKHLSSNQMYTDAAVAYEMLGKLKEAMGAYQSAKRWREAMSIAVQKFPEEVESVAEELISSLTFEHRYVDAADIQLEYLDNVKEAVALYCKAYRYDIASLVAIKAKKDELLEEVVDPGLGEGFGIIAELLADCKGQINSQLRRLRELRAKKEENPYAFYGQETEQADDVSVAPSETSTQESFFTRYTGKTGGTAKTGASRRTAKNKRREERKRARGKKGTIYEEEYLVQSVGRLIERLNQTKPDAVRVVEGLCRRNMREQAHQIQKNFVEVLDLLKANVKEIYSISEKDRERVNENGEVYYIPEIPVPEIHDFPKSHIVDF

T2: purified N-terminal region of Elp1 (S. cerevisiae)
T2 chain: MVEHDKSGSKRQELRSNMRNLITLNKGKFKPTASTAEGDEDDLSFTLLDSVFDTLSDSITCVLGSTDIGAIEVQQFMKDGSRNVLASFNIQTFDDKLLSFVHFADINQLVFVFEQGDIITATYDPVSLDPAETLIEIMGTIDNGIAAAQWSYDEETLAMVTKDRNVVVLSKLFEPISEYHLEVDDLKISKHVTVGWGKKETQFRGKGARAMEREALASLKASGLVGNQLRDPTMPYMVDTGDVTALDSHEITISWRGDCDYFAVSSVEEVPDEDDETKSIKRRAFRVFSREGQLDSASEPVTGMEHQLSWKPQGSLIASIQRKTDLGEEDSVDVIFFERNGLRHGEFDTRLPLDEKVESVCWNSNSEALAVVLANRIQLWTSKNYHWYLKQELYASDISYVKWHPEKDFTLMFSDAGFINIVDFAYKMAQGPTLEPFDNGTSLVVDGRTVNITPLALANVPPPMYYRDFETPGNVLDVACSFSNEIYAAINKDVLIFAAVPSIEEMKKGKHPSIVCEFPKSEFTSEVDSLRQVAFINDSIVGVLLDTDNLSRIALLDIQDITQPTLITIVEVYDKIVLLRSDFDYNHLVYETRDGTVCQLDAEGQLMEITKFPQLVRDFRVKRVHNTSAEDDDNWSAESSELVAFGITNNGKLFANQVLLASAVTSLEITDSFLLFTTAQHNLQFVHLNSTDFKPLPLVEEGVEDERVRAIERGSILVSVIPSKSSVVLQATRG

T3: GST-tagged full-length Elp1 (S. cerevisiae, UniProt Q06706 1-1349)
T3 construct: Elp1, Elongator subunit 1, S. cerevisiae; also called GST-Elp1; source: E. coli BL21 pSarRare, purified (NiNTA, S200 gel filtration); not shown: His6, N-terminal, kept; GST, N-terminal, kept
T3 sequence (looked up): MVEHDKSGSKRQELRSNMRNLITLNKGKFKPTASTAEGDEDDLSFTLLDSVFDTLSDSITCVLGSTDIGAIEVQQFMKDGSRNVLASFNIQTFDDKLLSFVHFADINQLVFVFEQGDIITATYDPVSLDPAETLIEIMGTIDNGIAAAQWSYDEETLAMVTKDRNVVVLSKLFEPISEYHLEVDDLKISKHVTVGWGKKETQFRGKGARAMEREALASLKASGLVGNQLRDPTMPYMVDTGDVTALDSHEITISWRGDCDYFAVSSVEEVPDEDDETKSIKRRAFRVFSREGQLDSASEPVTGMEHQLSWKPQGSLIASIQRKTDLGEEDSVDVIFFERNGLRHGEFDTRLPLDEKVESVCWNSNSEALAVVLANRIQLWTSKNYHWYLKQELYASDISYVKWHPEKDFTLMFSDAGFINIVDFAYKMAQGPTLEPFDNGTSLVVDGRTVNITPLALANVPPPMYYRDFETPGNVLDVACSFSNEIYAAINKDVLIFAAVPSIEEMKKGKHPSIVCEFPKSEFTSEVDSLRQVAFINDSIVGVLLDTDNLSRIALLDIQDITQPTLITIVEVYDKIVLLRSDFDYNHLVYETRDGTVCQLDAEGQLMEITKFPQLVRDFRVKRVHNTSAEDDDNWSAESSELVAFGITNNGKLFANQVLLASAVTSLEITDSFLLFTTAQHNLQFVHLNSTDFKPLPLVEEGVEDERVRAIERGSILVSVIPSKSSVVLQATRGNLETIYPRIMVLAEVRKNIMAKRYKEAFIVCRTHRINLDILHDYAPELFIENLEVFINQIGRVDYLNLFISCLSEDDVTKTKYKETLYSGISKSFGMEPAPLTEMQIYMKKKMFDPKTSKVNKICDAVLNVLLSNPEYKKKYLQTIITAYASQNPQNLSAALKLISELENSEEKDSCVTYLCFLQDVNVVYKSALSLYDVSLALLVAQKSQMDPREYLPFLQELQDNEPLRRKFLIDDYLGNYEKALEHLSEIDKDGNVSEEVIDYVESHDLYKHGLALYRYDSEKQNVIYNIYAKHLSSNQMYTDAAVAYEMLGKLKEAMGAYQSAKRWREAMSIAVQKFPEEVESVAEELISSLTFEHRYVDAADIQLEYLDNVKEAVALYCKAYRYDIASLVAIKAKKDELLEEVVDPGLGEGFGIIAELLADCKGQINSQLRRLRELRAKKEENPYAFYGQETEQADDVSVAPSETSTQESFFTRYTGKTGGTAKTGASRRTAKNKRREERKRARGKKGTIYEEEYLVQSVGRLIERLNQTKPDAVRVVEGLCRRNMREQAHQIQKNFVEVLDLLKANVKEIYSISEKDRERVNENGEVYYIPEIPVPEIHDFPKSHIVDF

B1: endogenous Elp3 (enzyme, UniProt Q02908 1-557, looked up)
chain: MARHGKGPKTNKKKLAPEKERFIQCCADITLELTDSLTSGTTREINLNGLITKYSKKYKLKQQPRLTDIINSIPDQYKKYLLPKLKAKPVRTASGIAVVAVMCKPHRCPHIAYTGNICVYCPGGPDSDFEYSTQSYTGYEPTSMRAIRARYDPYEQARGRVEQLKQLGHSIDKVEYVLMGGTFMSLPKEYREDFIVKLHNALSGFNGNDIDEAILYSQQSLTKCVGITIETRPDYCTQTHLDDMLKYGCTRLEIGVQSLYEDVARDTNRGHTVRSVCETFAVSKDAGYKVVSHMMPDLPNVGMERDIEQFKEYFENPDFRTDGLKIYPTLVIRGTGLYELWKTGRYKSYSANALVDLVARILALVPPWTRIYRVQRDIPMPLVTSGVDNGNLRELALARMKDLGTTCRDVRTREVGIQEVHHKVQPDQVELIRRDYYANGGWETFLSYEDPKKDILIGLLRLRKASKKYTYRKEFTSQRTSIVRELHVYGSVVPLHSRDPRKFQHQGFGTLLMEEAERIAKEEHGSEKISVISGVGVRNYYGKLGYELDGPYMSKRI
notes: Elp3, S. cerevisiae, endogenous protein; source: endogenous, S. cerevisiae strains BS1173 and BSY2369, co-purified with Elp1-TAP or Elp6-TAP

Columns and labels:
[1] = molecular target: T1, endogenously TAP-tagged Elp1; assay: tandem-affinity purification (SDS–PAGE); endogenous TAP-tagged bait from yeast lysate; IgG Sepharose, TEV elution, Calmodulin Sepharose, EGTA elution; HEPES pH 7.9, 125 mM NaCl; settings: partners not purified
[2] = molecular target: B1; assay: cross-linking; XL-MS of purified Elongator (Elp1-TAP sample, 1 mg/ml) with isotope-coded DSS or DSG, 0.5–2 mM, 30 min at 37°C; xQuest/xProphet, ld score at least 30; settings: both partners purified
[3] = molecular target: T2, purified N-terminal region of Elp1; assay: ITC; VP-ITC; 20 mM Tris–HCl pH 7.5, 150 mM NaCl, 2 mM β-mercaptoethanol; 10 μM in the cell, 100 μM in the syringe; settings: both partners purified
[4] = molecular target: T3, GST-tagged full-length Elp1; assay: pull-down; GST pull-down: 20 μg GST-tagged protein and increasing amounts of untagged partner with glutathione Sepharose, 2 h at 4°C, 20 mM Tris pH 7.5, 150 mM NaCl, 5 mM DTT, 0.1% Tween-20; five washes; SDS–PAGE, Coomassie; settings: both partners purified

Row | binding result [1] | Kd [3] [nM] | Binder | also measured
1 | binds |  | endogenous Elp4 (natural protein, UniProt Q02884 1-456, looked up, Elp4, S. cerevisiae, endogenous protein; source: endogenous, S. cerevisiae strains BS1173 and BSY2369, co-purified with Elp1-TAP or Elp6-TAP) MSFRKRGEILNDRGSGLRGPLLRGPPRTSSTPLRTGNRRAPGNVPLSDTTARLKKLNIADESKTKMGLDSSHVGVRPSPATSQPTTSTGSADLDSILGHMGLPLGNSVLVEEQSTTEFHSILGKLFAAQGIVHNRISDSSADKTRNGDTHVIVLSLNQMFAKELPGIYKGSRKQMKKNLISEEESKVTVQNLNETQRSTPSRYKDLKIAWKYKLADEKRLGSPDRDDIQQNSEYKDYNHQFDITTRLMPAPIASELTFIAPTQPVSTILSQIEQTIKRNDKKLIRIVIPSLLHPAMYPPKMFESSEIIGLMHGVRSLVKKYYERVVLFASISIDIITPPLLVLLRNMFDSVINLEPFNQEMTEFLERVYKSQPGKIQHGLVHILKLPVFTDRGEMRVLKSEWAFKNGRKKFEIEQWGIPVDDAEGSAASEQSHSHSHSDEISHNIPAKKTKISLDY | binding result [2]: binds
2 |  | 2700 ± 300 | MSFRKRGEIL (peptide, UniProt Q02884 1-10, looked up, Elp4, S. cerevisiae, residues 1–10; source: synthetic peptide (Peptide Specialty Laboratories, Germany)) [synthetic peptide of the conserved N-terminal region of Elp4 (aa1–10)] | 
3 |  |  | Full-length His6-tagged ScElp3, refolded and anaerobically reconstituted (enzyme, S. cerevisiae, UniProt Q02908 1-557, looked up, Elp3, Elongator subunit 3, S. cerevisiae; Carries a reconstituted Fe/S cluster; also called ScElp3H6) MARHGKGPKTNKKKLAPEKERFIQCCADITLELTDSLTSGTTREINLNGLITKYSKKYKLKQQPRLTDIINSIPDQYKKYLLPKLKAKPVRTASGIAVVAVMCKPHRCPHIAYTGNICVYCPGGPDSDFEYSTQSYTGYEPTSMRAIRARYDPYEQARGRVEQLKQLGHSIDKVEYVLMGGTFMSLPKEYREDFIVKLHNALSGFNGNDIDEAILYSQQSLTKCVGITIETRPDYCTQTHLDDMLKYGCTRLEIGVQSLYEDVARDTNRGHTVRSVCETFAVSKDAGYKVVSHMMPDLPNVGMERDIEQFKEYFENPDFRTDGLKIYPTLVIRGTGLYELWKTGRYKSYSANALVDLVARILALVPPWTRIYRVQRDIPMPLVTSGVDNGNLRELALARMKDLGTTCRDVRTREVGIQEVHHKVQPDQVELIRRDYYANGGWETFLSYEDPKKDILIGLLRLRKASKKYTYRKEFTSQRTSIVRELHVYGSVVPLHSRDPRKFQHQGFGTLLMEEAERIAKEEHGSEKISVISGVGVRNYYGKLGYELDGPYMSKRI | binding result [4]: binds
4 | binds |  | B1 | 
5 |  | 1600 ± 400 | MSFRKRGEILNDRGSGLRGPLLRGPPR (peptide, UniProt Q02884 1-27, looked up, Elp4, S. cerevisiae, residues 1–27; source: synthetic peptide (Peptide Specialty Laboratories, Germany)) [synthetic peptide of the conserved N-terminal region of Elp4 (aa1–27)] | 
